Series [1] concerns the target T1, RHA dsRBD1 (Homo sapiens, UniProt Q08211 1-91). As to the kind of experiment: ITC. (Isothermal titration calorimetry measures the heat released or taken up as one component is titrated into another.)
The target in the next series is RHA dsRBD2 H207A (Homo sapiens, UniProt Q08211 165-264, H207A). Briefly: ITC.
Series [2] deals with T2, RHA dsRBD2 (Homo sapiens, UniProt Q08211 165-264). As to the kind of experiment: ITC.
A further series deals with RHA dsRBD2 K182A (Homo sapiens, UniProt Q08211 165-264, K182A). Briefly: ITC.
RHA dsRBD2 K182A, sequence (Q08211 165-264 K182A): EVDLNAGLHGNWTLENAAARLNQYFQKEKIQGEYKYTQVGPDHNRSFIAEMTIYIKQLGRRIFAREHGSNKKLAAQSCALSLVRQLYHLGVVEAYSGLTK
Another series addresses RHA dsRBD1 N30A (Homo sapiens, UniProt Q08211 1-91, N30A). As to the kind of experiment: ITC.
In series [3] the target is RHA dsRBD2 N234A/K235A/K236A (Homo sapiens, UniProt Q08211 165-264, N234A;K235A;K236A). As to the kind of experiment: ITC.
RHA dsRBD2 N234A/K235A/K236A, sequence (Q08211 165-264 N234A/K235A/K236A): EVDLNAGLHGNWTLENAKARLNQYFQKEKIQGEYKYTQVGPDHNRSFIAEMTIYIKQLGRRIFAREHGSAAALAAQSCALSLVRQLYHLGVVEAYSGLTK
A further series deals with RHA dsRBD1 Y9A (Homo sapiens, UniProt Q08211 1-91, Y9A). As to the kind of experiment: ITC.
RHA dsRBD1 Y9A, sequence (Q08211 1-91 Y9A): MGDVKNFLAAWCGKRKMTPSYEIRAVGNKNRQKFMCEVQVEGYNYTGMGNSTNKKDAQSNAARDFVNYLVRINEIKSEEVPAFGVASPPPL
The target of series [4] is RHA dsRBD1 N53A/K54A/K55A (Homo sapiens, UniProt Q08211 1-91, N53A;K54A;K55A). As to the kind of experiment: ITC.
RHA dsRBD1 N53A/K54A/K55A, sequence (Q08211 1-91 N53A/K54A/K55A): as the sequence (Q08211 1-91 Y9A) above, with A9Y, N53A, K54A, K55A counted along it
Another series addresses RHA dsRBD1+2 (Homo sapiens, UniProt Q08211 1-264). As to the kind of experiment: ITC.
The target in series [5] is T1, RHA dsRBD1. Briefly: crystal structure.
The target in series [6] is T2, RHA dsRBD2. Briefly: crystal structure.
The target of a further series is GST-RHA dsRBD2 (Homo sapiens, UniProt Q08211 165-264). As to the kind of experiment: pull-down.
GST-RHA dsRBD2, sequence (Q08211 165-264): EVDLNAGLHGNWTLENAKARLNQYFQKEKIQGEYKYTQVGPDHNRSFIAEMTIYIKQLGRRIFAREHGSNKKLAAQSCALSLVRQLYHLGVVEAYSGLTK
The next series concerns the target GST-RHA dsRBD1+2 (Homo sapiens, UniProt Q08211 1-264). Briefly: pull-down.
A further series addresses GST-RHA dsRBD1 (Homo sapiens, UniProt Q08211 1-91). Briefly: pull-down.

One may read the Kd as the equilibrium constant for the complex coming apart. Low values mean a tighter complex, high ones a looser complex.

T1 sequence (Q08211 1-91): as the sequence (Q08211 1-91 Y9A) above, with A9Y counted along it
T2 sequence (Q08211 165-264): as the sequence (Q08211 165-264) above
GST-RHA dsRBD1, sequence (Q08211 1-91): as the sequence (Q08211 1-91 Y9A) above, with A9Y counted along it
RHA dsRBD1 N30A, sequence (Q08211 1-91 N30A): as the sequence (Q08211 1-91 Y9A) above, with A9Y, N30A counted along it
GST-RHA dsRBD1+2, sequence (Q08211 1-264): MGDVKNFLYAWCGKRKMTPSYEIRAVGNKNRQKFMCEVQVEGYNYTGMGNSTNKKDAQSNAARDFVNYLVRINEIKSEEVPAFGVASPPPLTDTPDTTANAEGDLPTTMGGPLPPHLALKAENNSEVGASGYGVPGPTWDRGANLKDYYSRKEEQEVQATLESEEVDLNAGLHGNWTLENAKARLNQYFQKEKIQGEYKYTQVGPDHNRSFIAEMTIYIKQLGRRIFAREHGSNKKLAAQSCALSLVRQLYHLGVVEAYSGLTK
RHA dsRBD1+2, sequence (Q08211 1-264): as above
RHA dsRBD2 H207A, sequence (Q08211 165-264 H207A): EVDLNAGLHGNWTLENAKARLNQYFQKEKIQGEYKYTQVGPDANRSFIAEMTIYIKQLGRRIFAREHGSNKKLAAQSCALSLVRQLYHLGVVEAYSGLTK

B1: siRNA21 duplex (dsRNA)
RNA 1: AGACAGCAUUAUGCUGUCUUU
RNA 2: AGACAGCAUUAUGCUGUCUUU
modifications: 5' phosphate
Take B1: the Kd in the series with RHA dsRBD1 [1] came out at 5.93 µM; in the series with RHA dsRBD2 H207A, 291 µM; with RHA dsRBD2 [2], 13.6 µM; with RHA dsRBD2 K182A it was 334 µM; with RHA dsRBD1 N30A, 14.5 µM; with RHA dsRBD1+2 it was 106 nM. The binding result (in series [3]; in the series with RHA dsRBD1 Y9A; in series [4]) was “no binding” throughout.

B2: GC10 duplex (dsRNA)
RNA 1: GCGCGCGCGC
RNA 2: GCGCGCGCGC
As for B2, the binding result with RHA dsRBD1 [5] and in the series with RHA dsRBD2 [6] was “binds” in each case.

B3: 5'-biotinylated siRNA21 duplex (dsRNA)
RNA 1: AGACAGCAUUAUGCUGUCUUU
RNA 2: AGACAGCAUUAUGCUGUCUUU
Take B3: the binding result in the series with GST-RHA dsRBD2, with GST-RHA dsRBD1+2 and with GST-RHA dsRBD1 was “binds” in each case.
